Data: the Human Domainome abundance scans (Beltran et al. 2025)
± gives the uncertainty stated by the source.

B1: 1-phosphatidylinositol 4,5-bisphosphate phosphodiesterase gamma-2, residues 772 to 827; numbered along this chain, P16885 (parent)
chain: RTVKALYDYKAKRSDELSFCRGALIHNVSKEPGGWWKGDYGTRIQQYFPSNYVEDI

Variants of: B1
Test: abundance fitness (aPCA) (normalised: wild type 0, dead -1); higher = more abundant; growth selection in yeast, the domain comes from the species named
Conditions: Homo sapiens

Abundance fitness: each site, then its substitutions
E31: S 0.002 ± 0.073
C20: I -0.216 ± 0.15; L -0.116 ± 0.081; R 0.11 ± 0.055; T -0.012 ± 0.083; D -0.095 ± 0.1; F -0.17 ± 0.11; Q -0.143 ± 0.1; G -0.059 ± 0.057; A 0.004 ± 0.06; P 0.209 ± 0.085; M -0.063 ± 0.073; N -0.037 ± 0.15; S 0.008 ± 0.075; H 0.151 ± 0.14; W -0.446 ± 0.1; V 0.017 ± 0.051; K 0.002 ± 0.11
E16: S -0.618 ± 0.21; L -0.486 ± 0.14; T -0.442 ± 0.2; A -0.456 ± 0.092; M -0.633 ± 0.096; G -0.354 ± 0.069; H -0.201 ± 0.38; K -0.822 ± 0.13; R -0.528 ± 0.097; W -1.02 ± 0.47; V -0.612 ± 0.074; Q -0.168 ± 0.13
L17: M 0.012 ± 0.093; T -0.788 ± 0.43; R -0.945 ± 0.28; I -0.154 ± 0.35; E -0.81 ± 0.42; G -1 ± 0.44; A -0.922 ± 0.28; W -0.884 ± 0.36; V -0.41 ± 0.14; Q -0.903 ± 0.11; F -0.492 ± 0.25
G33: P -0.699 ± 0.12; Q -0.556 ± 0.34; L -0.408 ± 0.07; W -0.258 ± 0.092; E -0.274 ± 0.21; F -0.203 ± 0.17; T -0.421 ± 0.15; Y -0.293 ± 0.064; R -0.434 ± 0.061; D -0.168 ± 0.055; H -0.277 ± 0.15; S -0.114 ± 0.049; C -0.108 ± 0.087; N -0.102 ± 0.067; A -0.547 ± 0.18; V -0.82 ± 0.2; K -0.781 ± 0.47
G34: S -0.129 ± 0.051; P 0.01 ± 0.071; D -0.085 ± 0.09; K 0.024 ± 0.12; E -0.06 ± 0.096; A -0.074 ± 0.06; W -0.445 ± 0.12; V -0.032 ± 0.059; N 0.138 ± 0.092; Q -0.094 ± 0.064; L -0.083 ± 0.067; H -0.101 ± 0.06; M -0.11 ± 0.094; Y -0.164 ± 0.15; I -0.143 ± 0.15; T 0.014 ± 0.088; R -0.06 ± 0.069; C -0.284 ± 0.14
Y40: G -0.864 ± 0.085; I 0.107 ± 0.12; E -0.419 ± 0.26; C -0.061 ± 0.089; K 0.189 ± 0.11; A -0.3 ± 0.13; D -0.711 ± 0.47; H 0.031 ± 0.17
